The values that follow come from IntAct's records for PubMed 31515488.

B1: Serine/threonine-protein kinase PAK 5 (Homo sapiens), Q9P286 (parent)
chain: MFGKKKKKIEISGPSNFEHRVHTGFDPQEQKFTGLPQQWHSLLADTANRPKPMVDPSCITPIQLAPMKTIVRGNKPCKETSINGLLEDFDNISVTRSNSLRKESPPTPDQGASSHGPGHAEENGFITFSQYSSESDTTADYTTEKYREKSLYGDDLDPYYRGSHAAKQNGHVMKMKHGEAYYSEVKPLKSDFARFSADYHSHLDSLSKPSEYSDLKWEYQRASSSSPLDYSFQFTPSRTAGTSGCSKESLAYSESEWGPSLDDYDRRPKSSYLNQTSPQPTMRQRSRSGSGLQEPMMPFGASAFKTHPQGHSYNSYTYPRLSEPTMCIPKVDYDRAQMVLSPPLSGSDTYPRGPAKLPQSQSKSGYSSSSHQYPSGYHKATLYHHPSLQSSSQYISTASYLSSLSLSSSTYPPPSWGSSSDQQPSRVSHEQFRAALQLVVSPGDPREYLANFIKIGEGSTGIVCIATEKHTGKQVAVKKMDLRKQQRRELLFNEVVIMRDYHHDNVVDMYSSYLVGDELWVVMEFLEGGALTDIVTHTRMNEEQIATVCLSVLRALSYLHNQGVIHRDIKSDSILLTSDGRIKLSDFGFCAQVSKEVPKRKSLVGTPYWMAPEVISRLPYGTEVDIWSLGIMVIEMIDGEPPYFNEPPLQAMRRIRDSLPPRVKDLHKVSSVLRGFLDLMLVREPSQRATAQELLGHPFLKLAGPPSCIVPLMRQYRHH
partner: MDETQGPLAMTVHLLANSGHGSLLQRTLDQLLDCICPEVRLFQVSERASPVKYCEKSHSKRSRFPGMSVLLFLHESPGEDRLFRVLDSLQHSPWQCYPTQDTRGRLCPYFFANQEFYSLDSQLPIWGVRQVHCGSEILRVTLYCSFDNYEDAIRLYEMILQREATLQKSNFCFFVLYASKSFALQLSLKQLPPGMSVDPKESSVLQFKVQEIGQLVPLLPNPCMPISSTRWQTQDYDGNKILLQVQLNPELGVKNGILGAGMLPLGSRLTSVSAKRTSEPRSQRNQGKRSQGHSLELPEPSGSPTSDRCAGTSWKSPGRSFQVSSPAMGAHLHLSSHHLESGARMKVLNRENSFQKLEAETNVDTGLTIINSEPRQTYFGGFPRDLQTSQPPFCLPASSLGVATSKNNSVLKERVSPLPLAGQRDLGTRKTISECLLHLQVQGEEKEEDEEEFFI
B2: Ubl carboxyl-terminal hydrolase 18 (Homo sapiens), Q9UMW8 (parent)
chain: MSKAFGLLRQICQSILAESSQSPADLEEKKEEDSNMKREQPRERPRAWDYPHGLVGLHNIGQTCCLNSLIQVFVMNVDFTRILKRITVPRGADEQRRSVPFQMLLLLEKMQDSRQKAVRPLELAYCLQKCNVPLFVQHDAAQLYLKLWNLIKDQITDVHLVERLQALYTIRVKDSLICVDCAMESSRNSSMLTLPLSLFDVDSKPLKTLEDALHCFFQPRELSSKSKCFCENCGKKTRGKQVLKLTHLPQTLTIHLMRFSIRNSQTRKICHSLYFPQSLDFSQILPMKRESCDAEEQSGGQYELFAVIAHVGMADSGHYCVYIRNAVDGKWFCFNDSNICLVSWEDIQCTYGNPNYHWQETAYLLVYMKMEC
B3: Cyclin-dependent kinase 2-interacting protein (Homo sapiens), Q9BW66 (parent)
chain: MEAKTLGTVTPRKPVLSVSARKIKDNAADWHNLILKWETLNDAGFTTANNIANLKISLLNKDKIELDSSSPASKENEEKVCLEYNEELEKLCEELQATLDGLTKIQVKMEKLSSTTKGICELENYHYGEESKRPPLFHTWPTTHFYEVSHKLLEMYRKELLLKRTVAKELAHTGDPDLTLSYLSMWLHQPYVESDSRLHLESMLLETGHRAL
partner: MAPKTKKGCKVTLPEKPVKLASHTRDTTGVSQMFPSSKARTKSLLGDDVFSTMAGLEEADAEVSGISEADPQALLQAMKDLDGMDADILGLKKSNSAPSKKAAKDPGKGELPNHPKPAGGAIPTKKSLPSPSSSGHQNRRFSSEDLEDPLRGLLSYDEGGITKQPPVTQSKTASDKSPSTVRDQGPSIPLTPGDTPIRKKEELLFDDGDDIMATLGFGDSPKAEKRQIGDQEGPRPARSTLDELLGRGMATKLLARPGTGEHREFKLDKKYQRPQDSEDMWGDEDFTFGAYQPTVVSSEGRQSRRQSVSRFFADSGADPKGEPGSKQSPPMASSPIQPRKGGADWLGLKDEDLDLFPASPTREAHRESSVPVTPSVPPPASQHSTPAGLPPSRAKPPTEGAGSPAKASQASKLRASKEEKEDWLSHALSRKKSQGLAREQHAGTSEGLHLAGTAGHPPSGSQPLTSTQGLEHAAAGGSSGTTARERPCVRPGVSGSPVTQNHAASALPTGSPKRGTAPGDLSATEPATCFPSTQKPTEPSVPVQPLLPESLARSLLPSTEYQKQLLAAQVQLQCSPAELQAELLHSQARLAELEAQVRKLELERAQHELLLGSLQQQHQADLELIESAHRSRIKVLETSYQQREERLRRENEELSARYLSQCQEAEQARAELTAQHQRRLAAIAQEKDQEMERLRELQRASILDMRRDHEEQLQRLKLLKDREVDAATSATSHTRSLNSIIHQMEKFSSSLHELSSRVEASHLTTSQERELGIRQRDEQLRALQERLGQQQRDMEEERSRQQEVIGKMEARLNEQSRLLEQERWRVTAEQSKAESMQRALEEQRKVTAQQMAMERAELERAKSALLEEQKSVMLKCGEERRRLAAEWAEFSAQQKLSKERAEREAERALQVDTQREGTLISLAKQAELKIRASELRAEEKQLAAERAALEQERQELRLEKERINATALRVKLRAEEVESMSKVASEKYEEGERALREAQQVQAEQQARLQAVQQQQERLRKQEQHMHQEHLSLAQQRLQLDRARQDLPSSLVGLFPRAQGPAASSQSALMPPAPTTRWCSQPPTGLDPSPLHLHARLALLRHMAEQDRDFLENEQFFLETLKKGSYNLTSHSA
B4: C-type lectin domain family 1 member A (Homo sapiens), Q8NC01 (parent)
chain: MQAKYSSTRDMLDDDGDTTMSLHSQGSATTRHPEPRRTEHRAPSSTWRPVALTLLTLCLVLLIGLAALGLLFFQYYQLSNTGQDTISQMEERLGNTSQELQSLQVQNIKLAGSLQHVAEKLCRELYNKAGAHRCSPCTEQWKWHGDNCYQFYKDSKSWEDCKYFCLSENSTMLKINKQEDLEFAASQSYSEFFYSYWTGLLRPDSGKAWLWMDGTPFTSELFHIIIDVTSPRSRDCVAILNGMIFSKDCKELKRCVCERRAGMVKPESLHVPPETLGEGD
partner: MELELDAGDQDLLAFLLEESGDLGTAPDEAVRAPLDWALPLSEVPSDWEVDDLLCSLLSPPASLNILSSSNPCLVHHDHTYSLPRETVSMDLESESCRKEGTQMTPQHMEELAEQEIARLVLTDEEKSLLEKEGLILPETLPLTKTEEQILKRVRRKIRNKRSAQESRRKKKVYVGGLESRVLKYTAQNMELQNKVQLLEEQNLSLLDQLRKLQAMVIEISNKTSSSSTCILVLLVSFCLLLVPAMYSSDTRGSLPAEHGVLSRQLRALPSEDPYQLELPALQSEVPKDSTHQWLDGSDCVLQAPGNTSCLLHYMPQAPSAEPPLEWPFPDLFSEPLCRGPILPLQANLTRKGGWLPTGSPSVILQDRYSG
B5: Zinc finger and BTB domain-containing protein 43 (Homo sapiens), O43298 (parent)
chain: MEPGTNSFRVEFPDFSSTILQKLNQQRQQGQLCDVSIVVQGHIFRAHKAVLAASSPYFCDQVLLKNSRRIVLPDVMNPRVFENILLSSYTGRLVMPAPEIVSYLTAASFLQMWHVVDKCTEVLEGNPTVLCQKLNHGSDHQSPSSSSYNGLVESFELGSGGHTDFPKAQELRDGENEEESTKDELSSQLTEHEYLPSNSSTEHDRLSTEMASQDGEEGASDSAEFHYTRPMYSKPSIMAHKRWIHVKPERLEQACEGMDVHATYDEHQVTESINTVQTEHTVQPSGVEEDFHIGEKKVEAEFDEQADESNYDEQVDFYGSSMEEFSGERSDGNLIGHRQEAALAAGYSENIEMVTGIKEEASHLGFSATDKLYPCQCGKSFTHKSQRDRHMSMHLGLRPYGCGVCGKKFKMKHHLVGHMKIHTGIKPYECNICAKRFMWRDSFHRHVTSCTKSYEAAKAEQNTTEAN
partner: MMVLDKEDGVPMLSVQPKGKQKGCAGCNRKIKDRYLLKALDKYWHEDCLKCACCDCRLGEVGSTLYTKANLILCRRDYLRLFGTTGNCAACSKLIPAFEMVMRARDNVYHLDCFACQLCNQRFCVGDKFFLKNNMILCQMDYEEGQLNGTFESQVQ
B6: Zinc finger protein 544 (Homo sapiens), Q6NX49 (parent)
chain: MEARSMLVPPQASVCFEDVAMAFTQEEWEQLDLAQRTLYREVTLETWEHIVSLGLFLSKSDVISQLEQEEDLCRAEQEAPRDWKATLEENRLNSEKDRAREELSHHVEVYRSGPEEPPSLVLGKVQDQSNQLREHQENSLRFMVLTSERLFAQREHCELELGGGYSLPSTLSLLPTTLPTSTGFPKPNSQVKELKQNSAFINHEKNGADGKHCESHQCARAFCQSIYLSKLGNVETGKKNPYEYIVSGDSLNYGSSLCFHGRTFSVKKSDDCKDYGNLFSHSVSLNEQKPVHFGKSQYECDECRETCSESLCLVQTERSGPGETPFRCEERCAAFPMASSFSDCNIIQTTEKPSVCNQCGKSFSCCKLIHQRTHTGEKPFECTQCGKSFSQSYDLVIHQRTHTGEKPYECDLCGKSFTQRSKLITHQRIHTGEKPYQCIECRKSFRWNSNLIVHQRIHTGEKPYECTHCGKSFSQSYELVTHKRTHTGEKPFKCTQCGKSFSQKYDLVVHQRTHTGEKPYECNLCGKSFSQSSKLITHQRIHTGEKPYQCIECGKSFRWNSNLVIHQRIHTGEKPYDCTHCGKSFSQSYQLVAHKRTHTGEKPYECNECGKAFNRSTQLIRHLQIHTGEKPYKCNQCNKAFARSSYLVMHQRTHTGEKPFECSQCGKAFSGSSNLLSHHRIHSGEKPYECSDCGKSFRQQSQLVVHRRTHTGEKP
B7: Protein LDOC1 (Homo sapiens), O95751 (parent)
chain: MVDELVLLLHALLMRHRALSIENSQLMEQLRLLVCERASLLRQVRPPSCPVPFPETFNGESSRLPEFIVQTASYMLVNENRFCNDAMKVAFLISLLTGEAEEWVVPYIEMDSPILGDYRAFLDEMKQCFGWDDDEDDDDEEEEDDY
partner: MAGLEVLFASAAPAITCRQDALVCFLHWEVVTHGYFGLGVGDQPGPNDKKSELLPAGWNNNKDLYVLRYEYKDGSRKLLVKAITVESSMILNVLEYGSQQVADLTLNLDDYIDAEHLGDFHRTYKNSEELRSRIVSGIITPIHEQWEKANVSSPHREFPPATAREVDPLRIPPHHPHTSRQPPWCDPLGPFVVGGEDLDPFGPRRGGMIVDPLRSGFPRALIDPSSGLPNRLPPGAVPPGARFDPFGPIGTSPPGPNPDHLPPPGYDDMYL
B8: "Peptide-N(4)-(N-acetyl-beta-glucosaminyl)asparagine amidase" (Homo sapiens), Q96IV0 (parent)
chain: MAAAALGSSSGSASPAVAELCQNTPETFLEASKLLLTYADNILRNPNDEKYRSIRIGNTAFSTRLLPVRGAVECLFEMGFEEGETHLIFPKKASVEQLQKIRDLIAIERSSRLDGSNKSHKVKSSQQPAASTQLPTTPSSNPSGLNQHTRNRQGQSSDPPSASTVAADSAILEVLQSNIQHVLVYENPALQEKALACIPVQELKRKSQEKLSRARKLDKGINISDEDFLLLELLHWFKEEFFHWVNNVLCSKCGGQTRSRDRSLLPSDDELKWGAKEVEDHYCDACQFSNRFPRYNNPEKLLETRCGRCGEWANCFTLCCRAVGFEARYVWDYTDHVWTEVYSPSQQRWLHCDACEDVCDKPLLYEIGWGKKLSYVIAFSKDEVVDVTWRYSCKHEEVIARRTKVKEALLRDTINGLNKQRQLFLSENRRKELLQRIIVELVEFISPKTPKPGELGGRISGSVAWRVARGEMGLQRKETLFIPCENEKISKQLHLCYNIVKDRYVRVSNNNQTISGWENGVWKMESIFRKVETDWHMVYLARKEGSSFAYISWKFECGSVGLKVDSISIRTSSQTFQTGTVEWKLRSDTAQVELTGDNSLHSYADFSGATEVILEAELSRGDGDVAWQHTQLFRQSLNDHEENCLEIIIKFSDL
partner: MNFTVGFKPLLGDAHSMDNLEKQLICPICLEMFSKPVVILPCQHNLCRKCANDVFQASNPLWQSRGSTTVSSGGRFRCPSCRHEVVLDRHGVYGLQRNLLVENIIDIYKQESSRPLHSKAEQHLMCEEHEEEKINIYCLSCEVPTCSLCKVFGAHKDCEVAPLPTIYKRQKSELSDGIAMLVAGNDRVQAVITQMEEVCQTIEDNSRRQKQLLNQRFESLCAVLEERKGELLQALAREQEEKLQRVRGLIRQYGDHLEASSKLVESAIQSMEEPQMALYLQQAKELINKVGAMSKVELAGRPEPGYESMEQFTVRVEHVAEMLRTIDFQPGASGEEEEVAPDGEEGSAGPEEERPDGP

One test covers variants of B1. Conditions: with FAM124B.
For the variant R335P, the “effect of a mutation on the interaction” value is reported as “with no effect”.

The variants in the next test derive from B2. Conditions: with isg15_human ISG15, P05161.
isg15_human ISG15, P05161, sequence (P05161 whole entry): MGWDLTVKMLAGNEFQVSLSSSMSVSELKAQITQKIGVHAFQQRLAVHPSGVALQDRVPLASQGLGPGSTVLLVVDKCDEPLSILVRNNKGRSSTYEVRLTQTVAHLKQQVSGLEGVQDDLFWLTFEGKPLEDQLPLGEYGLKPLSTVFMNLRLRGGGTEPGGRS
In the case of T169M, the “effect of a mutation on the interaction” value is listed as “with no effect”.

In the next test the parent is B3. Conditions: with fbf1_human FBF1, Q8TES7.
For the variant R164H, the “effect of a mutation on the interaction” value is “with no effect”.

The variants in a further test derive from B3. Conditions: with fbf1_human FBF1, Q8TES7. The source holds these as a separate data set.
In the case of D177N, the “effect of a mutation on the interaction” value is reported as “with no effect”.

Another test covers variants of B4. Conditions: with creb3_human CREB3, O43889.
As for P272S, the “effect of a mutation on the interaction” value is given as “with no effect”.
As for G26A, the “effect of a mutation on the interaction” value was “with no effect”.

In a further test the parent is B5. Conditions: with rbtn1_human LMO1, P25800.
In the case of L151V, the “effect of a mutation on the interaction” value was “disrupting interaction strength”.

In a further test the parent is B6. Conditions: with traf2_human TRAF2, Q12933.
traf2_human TRAF2, Q12933, sequence (Q12933 whole entry): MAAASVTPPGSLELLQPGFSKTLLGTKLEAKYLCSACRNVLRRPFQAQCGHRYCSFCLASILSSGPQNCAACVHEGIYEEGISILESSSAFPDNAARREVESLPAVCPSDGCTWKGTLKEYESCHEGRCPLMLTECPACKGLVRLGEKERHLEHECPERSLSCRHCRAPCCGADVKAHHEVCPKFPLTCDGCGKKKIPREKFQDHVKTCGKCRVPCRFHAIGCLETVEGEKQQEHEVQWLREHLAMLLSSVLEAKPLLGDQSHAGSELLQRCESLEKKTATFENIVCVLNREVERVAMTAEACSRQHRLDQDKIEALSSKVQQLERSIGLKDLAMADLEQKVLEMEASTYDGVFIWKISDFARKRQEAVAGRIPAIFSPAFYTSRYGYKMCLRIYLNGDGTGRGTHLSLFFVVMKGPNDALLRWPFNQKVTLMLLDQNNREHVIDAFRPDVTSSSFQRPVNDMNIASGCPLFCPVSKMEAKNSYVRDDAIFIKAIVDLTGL
With K406M, the “effect of a mutation on the interaction” value was “disrupting interaction strength”.

Variants of B7 are the subject of a further test. Conditions: with psmf1_human PSMF1, Q92530.
Consider L12H, for which the “effect of a mutation on the interaction” value is on record as “disrupting interaction strength”.

Variants of B8 are the subject of a further test. Conditions: with tri54_human TRIM54, Q9BYV2.
With V184F, the “effect of a mutation on the interaction” value is “with no effect”.
With F292L, the “effect of a mutation on the interaction” value is listed as “with no effect”.
